Measured values taken from article PMC11957191, “The PH domain in the ArfGAP ASAP1 drives catalytic activation through an unprecedented allosteric mechanism” (Research Square, 2025).
One block for each binder: values may come before it.

Tests used:
[1] = target: T1, myristoylated human Arf1 (myrArf1), GTP-bound form at a membrane surface (human, UniProt P84077 1-181, N-myristoylated); experiment: other fluorescence titration + other: inhibition of GAP activity; PH domain titrated; (i) rate of mant-GTP dissociation from myrArf1 on LUVs with 5 mol% PI(4,5)P2, followed by FRET from Arf tryptophan to mant-GTP, excess GTP 160 μM; (ii) IC50 of PH domain for GAP activity of 1 nM wt PZA on myrArf1·GTP below the Km; both served as proxies for the affinity; details: both partners purified
T1 construct: human Arf1, Uniprot P84077, gene cloned into MCS1 of pETDuet-1; Loaded with GTP, GTPγS or mant-GTP and anchored to MSPΔH5 nanodiscs or LUVs with PI(4,5)P2; Isotopically labelled for NMR; also called myrArf1·GTPγS; Arf·GTP

[2] = target: T1, myristoylated human Arf1 (myrArf1), …; experiment: cell-based or functional assay
[3] = target: T2, ZA domain of ASAP1 (Arf GAP and ankyrin repeat domains), [431–724]ASAP1 (UniProt Q9QWY8 431-724); experiment: NMR intermolecular paramagnetic relaxation enhancement (PRE); Cys159-MTSL myrArf1 with a non-hydrolysable GTP analog on nanodiscs, alone or in complex with wt PH (100 μM), and 100 μM isotopically labeled isolated ZA domain; details: both partners purified
T2 construct: Isotopically labelled for the PRE experiment; also called ΔPHZA; isolated ZA domain
T2 sequence (looked up): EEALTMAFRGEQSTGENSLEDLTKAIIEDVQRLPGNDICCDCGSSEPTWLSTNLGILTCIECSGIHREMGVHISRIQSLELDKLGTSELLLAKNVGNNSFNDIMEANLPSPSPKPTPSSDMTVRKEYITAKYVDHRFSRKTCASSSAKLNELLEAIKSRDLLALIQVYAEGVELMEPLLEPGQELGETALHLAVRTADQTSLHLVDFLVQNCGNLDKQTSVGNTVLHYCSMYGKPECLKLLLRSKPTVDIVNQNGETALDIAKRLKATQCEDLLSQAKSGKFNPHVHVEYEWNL

T1 sequence (P84077 whole entry, the tested form may be a part): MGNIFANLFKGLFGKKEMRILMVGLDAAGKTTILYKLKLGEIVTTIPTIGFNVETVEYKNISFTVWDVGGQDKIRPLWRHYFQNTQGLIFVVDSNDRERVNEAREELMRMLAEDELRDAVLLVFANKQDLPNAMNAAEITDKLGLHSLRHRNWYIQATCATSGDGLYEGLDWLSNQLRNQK

affinity relative to wt PH [1]: ~0.5 fold of wt PH
'in trans' stimulation of GTP hydrolysis by ZA on myrArf1 (LUVs), relative to wt PH [2]: 0.01 fold of wt PH
B1: ΔN14 ASAP1 PH domain, [339–451]ASAP1 (domain or fragment, UniProt Q9QWY8 339-451, looked up)
chain: GSEKKGFLLKKSDGIRKVWQRRKCAVKNGILTISHATSNRQPAKLNLLTCQVKPNAEDKKSFDLISHNRTYHFQAEDEQDYIAWISVLTNSKEEALTMAFRGEQSTGENSLED
notes: ASAP1 residues 339-451: PH domain without residues 325-338 (the first 14 residues of the wt PH construct); also called ΔN14PH; source: E. coli BL21 Star (DE3) (pET3a) or BL21 (DE3) (pET21), purified (HiTrap SP HP, SEC)

Kd [3]: 100 to 1000 µM
B2: Cys159-MTSL tagged myrArf1 (natural protein)
chain: not shown
modifications: N-myristoylated; MTSL nitroxide spin label on the native Cys159
notes: also called Arf (in the ZA PRE experiment); source: E. coli, co-expressed with yeast NMT, purified; spin-labelled with MTSL
